Assay results as given in the DeepSol protein solubility set.

Assay: soluble on expression in E. coli; label from the status in PepcDB or PDB records
With “MGLKEKLIRKGKYIWELPKETIEGQRVPVILYLSDALFELLEEDALRQAANAATLPGVEKAIYVMPDVHVGYGFPVGGVMATNTETGIISPGSIGYDINCGVRLIATNLKAVDVAPRIKEIMNNMLKNVPAGVGSTSEIKLSKSQMKEVLVKGAGWAVEHGFGFPEDLQHIEGFGALPNADPEKASHEAYERGSDELGTVGSGNHFVEVQAVEQIYEPEIAEKLGIWEGQVMVMVHSGSRGFGHQVCTDYLRVALKVRDKYKIKLPDPQLACMPFNSPEGQAYFKAMNAAANYAFANRQILGFKAANTVRKTLGISWEEFGYRLIYDHAHNIGKVEKHEVDGKKVEVIVHRKGATRAFPPYNPEVPPAYREVGQPVIIPGDMGRASFLLVGQTNSMKMSFGTACHGAGRVMSRRQAKKYVKEVGLEKVIGNLVVVARGKGTIMEEIPQAYKDVTEVVRVIDELGIAKAVARLKPLGTLKG” the “soluble on expression in E. coli” value was “soluble”.
In the case of “MGLKKCGLNLSRDNKELKPHGTIDFPCAGYSSCYRDSEDDIIPWHWHPELEILYIKSGNLKLKLPEKTFHLTPGDGFIVNSNVLHYAVAEPLCELHSIVFSPLLITGWEGSVFAEKYIGPLVRCPSFDGCSLNCLFPEPEMFENLFTAAFHALAEDLPGYEFTLREALSKLCYALCLRFGPETGDDCPAPSPDAERLRRMLDYIHCHYSEPLKLSQIAEAADIGERECLRCFSRMIQVSPIQYLLKYRVNQSASLLLREPGKNITAIAGGCGFDSPGNFSRIFKRYYKCSPKEYRSRNKE”, the “soluble on expression in E. coli” value is reported as “soluble”.
In the case of “MGLLVNGIWQDQWYDTESTGGRFVRHDSQFRHWITPDGSPGPTGHGGFKAEAGRYHLYVSLACPWAHRTLIFRKLKGLEGMIDVSVVHWLMRENGWTFAPGPGVMPDPLFNAEYLYQIYTRADAQYSGRVTVPILWDKQKQTIVNNESSEIIRIFNSAFDGLGAKSGDYYPKALRTQIDALNDRIYHTINNGVYKCGFATTQTAYEEAIAPLFESLDWLEGILQGHQYLTGDEITEADWRLFTTLIRFDVVYVGHFKCNLRRIQDYPNLWRYLRDLYHQPGIAETVNFQHIKGHYYESHLNINPTGIVPMGPALDLSLALEHHHHHH”, the “soluble on expression in E. coli” value is reported as “not soluble”.
For “MGLSVMIMLMRSVKIKYLNLASLSNDRSADTSAAPHSPLRTRLVHPSLAFCPDVPSGKCRFAKFYGIGREPHRIRGADVLLFEGLKRVR”, the “soluble on expression in E. coli” value was “not soluble”.
In the case of “MGMIGYFAEIDSEKINQLLESTEKPLMDNIHDTLSGLRRLDIDKRWDFLHFGLTGTSAFDPAKNDPLSRAVLGEHSLEDGIDGFLGLTWNQELAATIDRLESLDRNELRKQFSIKRLNEMEIYPGVTFSEELEGQLFASIMLDMEKLISAYRRMLRQGNHALTVIVG”, the “soluble on expression in E. coli” value is reported as “soluble”.
In the case of “MGNQCQNGTLGSDYHNRFPREHAVGYVQGDSYLDLKKFDDTWPEVNNFKPTAASILRRGLDPTSINVLGRKTADLREHYIIGRKLGQGQFGTTYLCTEINTGCEYACKTIPKRKLITKEDVEDVRREIQIMHHLSGHKNVVAIKDVYEDGQAVHIVMELCAGGELFDRIQEKGHYSERKAAELIRIIVSIVAMCHSLGVMHRDLKPENFLLLDKDDDLSIKAIDFGLSVFFKPGQAFTELVGSPYYVAPEVLHKRYGPESDVWSAGVILYVLLSGVPPFWAETQQGIFDAVLKGHIDFQSDPWPKISDSAKDLIRKMLSHCPSERLKAHEVLRHPWICENGVATDQALDPSVISRLKQFSAMNKLKKLALRVIAERLSEEEIAGLREMFKAVDTKNRGVITFGELREGLRRFGAEFKDTEIGDIMEAAHNDNNVTIHYEEFIAATLPLNKIEREEHLLAAFTYFDKDGSGYITVDKLQRACGEHNMEDSLLEEIISEVDQNNDGQIDYAEFVAMMQGSNVGLGWRTMESSLNVALRDAPQVH”, the “soluble on expression in E. coli” value is reported as “not soluble”.
In the case of “MGNSYITKEDNQISATSEQTEDSACLSAMVLTTNLVYPAVLNAAIDLNLFEIIAKATPPGAFMSPSEIASKLPASTQHSDLPNRLDRMLRLLASYSVLTSTTRTIEDGGAERVYGLSMVGKYLVPDESRGYLASFTTFLCYPALLQVWMNFKEAVVDEDIDLFKNVHGVTKYEFMGKDKKMNQIFNKSMVDVCATEMKRMLEIYTGFEGISTLVDVGGGSGRNLELIISKYPLIKGINFDLPQVIENAPPLSGIEHVGGDMFASVPQGDAMILKAVCHNWSDEKCIEFLSNCHKALSPNGKVIIVEFILPEEPNTSEESKLVSTLDNLMFITVGGRERTEKQYEKLSKLSGFSKFQVACRAFNSLGVMEFYK”, the “soluble on expression in E. coli” value is reported as “soluble”.
With “MGPTQETYTIVRYQSGTFSKQLDEIVTESPITIKLNGEEYVTVVCTPNYIEDMVIGFLISEGIISSYNDVEELWVQKDNGIVHVKSSKVNPLYQTLYNKRYVTSCCGKGRQGFIFVNDAAKAKDLHDIHVKITPEECFYLMNTLQQSSTTFRQTGGVHNTALCDRNKILLSRMDIGRHNALDKIYGHCLRNDISVKGKIIAFSGRISSEILLKVSKIGCEIVLSKSAPTKLALQLAHDLGITVVGFIRNESCNIYTHPHRIDGYQSNN” the “soluble on expression in E. coli” value was “not soluble”.
With “MGPYFGKVSEVSSNSQTTYLPESADATQVQEQLGDFTDSESIPAIVVMVSDEPLTQQDITQLNEVVAGLSELDIVSDEVSPAIPSEDGRAVQVFVPLNPSAELTESVEKLSETLTQQTPDYVSTYVTGPAGFTADLSALEHHHHHH” the “soluble on expression in E. coli” value was “not soluble”.
For “MGQNIELHESLIRLIPYGEVPLPTVEQVQEHIYSYLNYLSESAIEQDVLFRVLLSTEERETLARAALGLTLEEISDFLRLTVKERLSSNGITIDATVTPMVVEYKTRLLSQMGIELGKPALYSFGGLDLLREWLNRRRKLFTQEARNLQLPQPKGILLEHHHHHH”, the “soluble on expression in E. coli” value was “not soluble”.
In the case of “MGRGSEFGIFAFTDSVFEITESVGRFELKVMRYSGARGTVIVPYWTENDTATESKDYEGARGELVFENNESEKFIDLFILEESSYEKDVSFKVHIGEPRLAPDDGLAAKIKEVEKKPVQDLTELDRILLLSKPRNGELTTAYVRIRESQEFKATVDKLVAKA”, the “soluble on expression in E. coli” value is reported as “soluble”.
With “MGRIAVIGAGVAALAAARSLVLAGRRPLLIAPDREVISRGETLSPAAAALLDRLQWADLLDADSALPSEGRFSVWGDATLRQAAQGVGAWHLDRARFERQMRAKLDNDAIECHPIIVTMLVHHCDGVVLELGDGRVVFADAAIDCSGRAAVSSGAAAGRRRTDRLVAVWRVLDLPDDTEPAAATLIEAVPLGWWYMAPLPGDRMMLGLFTDTDLVPPGAAQDGATWTGLAASTVAIAPRLRSLGLDVSAAREPPQVAPAATVTASRLIEGRILRAGDAAAALDPLGANGLATALWSGMAAAEAALTLTEGEPERADAYERDYLQGIAQHLVSQQAMYAAEPRFADAPFWQRRRAVVSSHPQKETLPLEHHHHHH” the “soluble on expression in E. coli” value was “not soluble”.
In the case of “MGRKVKPLASMKKHLTNDERDQRKDAEKALFDYPSLDLTPPDWLHDRALTEWQRVAPYLKANTPISELDRAMLASYCRAYATVQTCENDIRKNGLVQTNQKSGVRKPNPYVALQSQAMKDVKALANDLGMSLSSRARMELNKQKDETPEDTFEAMLS”, the “soluble on expression in E. coli” value is reported as “not soluble”.
In the case of “MGSCCSCLNRDSVPDNHPTKFKVTNVDDEGVELGSGVMELTQSELVLHLHRREAVRWPYLCLRRYGYDSNLFSFESGRRCQTGQGIFAFKCSRAEEIFNLLQDLMQCNSINVMEEPVIITRNSHPAELDLPRAPQPPNALGYTVSSFSNGCPGEGPRFSAPRRLSTSSLRHPSLGEESTHALIAPDEQSHTYVNTPASEDDHRRGRHCLQPLPEGQAPFLPQARGPDQRDPQVFLQPGQVKFVLGPTPARRHMVKCQGLCPSLHDPPHHNNNNEAPSECPAQPKCTYENVTGGLWRGAGWRLSPEEPGWNGLAHRRAALLHYENLPPLPPVWESQAQQLGGEAGDDGDSRDGLTPSSNGFPDGEEDETPLQKPTSTRAAIRSHGSFPVPLTRRRGSPRVFNFDFRRPGPEPPRQLNYIQVELKGWGGDRPKGPQNPSSPQAPMPTTHPARSSDSYAVIDLKKTVAMSNLQRALPRDDGTARKTRHNSTDLPL”, the “soluble on expression in E. coli” value is reported as “soluble”.
In the case of “MGSDKIHHHHHHAAEGNDKKQDLIVKTTQAVPVSHQGDKEFSFIARPFRTSELSFRVGGPIDRFDVYAGNRYQQGSIIAEIDPRDFRIRKERAEAIYHQAKAEFERIQKLYGKGNVSASTYEKAKADYITAKTTFNTASYELEDTHLIAPFNGYVGEVYIEKFQDVKATQPIISFIDIDQLKLEIYVTQDIARAVQALDTIQVRFDAQPDKVYNAKIMEISKGTTRNNLSYLLTALLPNKEGKLLAGMSGKASLNAPSVSTLSQGAAIPQTALCHRPTEGDYLWVVNSKTQQVTKRKVKKGDLLPNGYVSITEGLYPDETVANSGLRFLSDGMKISVENE”, the “soluble on expression in E. coli” value is reported as “not soluble”.
